According to publication PMC7016142, “Tripartite phase separation of two signal effectors with vesicles priming B cell responsiveness” (Nature Communications, 2020):

How the values were obtained:
Details in all cases: both partners purified
[1] = target: T1, CIN85_(1-333) (human, UniProt Q96B97 1-333, 15N-labeled in the PRE experiment; unlabeled in the HSQC titration); assay: NMR paramagnetic relaxation enhancement (1H R2-PRE); 15N-labeled CIN85_(1-333) mixed with MTSL-tagged SLP65 constructs at 10:1 molar ratio; TROSY with two-point delay; constructs without MTSL with 1 mM TCEP as diamagnetic reference; 293 K
T1 construct: CIN85 (SH3KBP1), human, residues 1-333 with the three N-terminal SH3 domains, lacking the C-terminal coiled coil; also called monomeric CIN85; source: E. coli BL21(DE3), purified (Ni-NTA, TEV cleavage, size exclusion); not shown: His7, N-terminal, cleaved
T1 sequence (looked up): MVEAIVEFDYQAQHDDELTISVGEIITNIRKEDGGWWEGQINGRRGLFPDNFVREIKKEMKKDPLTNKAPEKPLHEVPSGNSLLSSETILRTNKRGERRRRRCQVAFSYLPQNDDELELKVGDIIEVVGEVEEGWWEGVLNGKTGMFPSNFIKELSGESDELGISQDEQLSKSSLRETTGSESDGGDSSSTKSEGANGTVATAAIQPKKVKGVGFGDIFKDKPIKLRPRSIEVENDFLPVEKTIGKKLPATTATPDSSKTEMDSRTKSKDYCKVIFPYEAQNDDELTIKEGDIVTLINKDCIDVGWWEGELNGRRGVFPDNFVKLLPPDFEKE

[2] = target: T2, CIN85Δ57 (human, UniProt Q96B97 1-665, deletion of residues 369-425); assay: NMR titration; 15N-HSQC of 15 µM 15N-labeled SLP65_(1-330) with CIN85Δ57 added, without or with SUVs (phase-separated samples); peak intensity ratio over SLP65 only; 293 K; 20 mM HEPES pH 7.2, 100 mM NaCl, 1 mM TCEP
T2 construct: CIN85 (SH3KBP1), human, amplified with primers from the start ATG to the stop codon, residues 369-425 deleted; The tag and its cleavage follow only from 'Protein expression and purification was performed as described above'; also called trimeric CIN85Δ57; source: E. coli, modified pET28a vector, purified as the other constructs; not shown: His7, N-terminal, cleaved

[3] = target: T1, CIN85_(1-333); assay: NMR titration; 15N-HSQC of 60 µM 15N-labeled SLP65_(1-330) titrated with increasing amounts of unlabeled CIN85_(1-333); 293 K; 20 mM HEPES pH 7.2, 100 mM NaCl, 1 mM TCEP, 0.5 mM Pefabloc

B1: SLP65_(40-330), MTSL-tagged at C271 (domain or fragment, human, UniProt Q8WV28 40-330, looked up)
chain: KVKAPPSVPRRDYASESPADEEEQWSDDFDSDYENPDEHSDSEMYVMPAEENADDSYEPPPVEQETRPVHPALPFARGEYIDNRSSQRHSPPFSKTLPSKPSWPSEKARLTSTLPALTALQKPQVPPKPKGLLEDEADYVVPVEDNDENYIHPTESSSPPPEKAPMVNRSTKPNSSTPASPPGTASGRNSGAWETKSPPPAAPSPLPRAGKKPTTPLKTTPVASQQNASSVCEEKPIPAERHRGSSHRQEAVQSPVFPPAQKQIHQKPIPLPRFTEGGNPTVDGPLPSFSS
modifications: nitroxide spin label MTSL on C271
notes: SLP65 (BLNK), human, residues 40-330, naturally contains a single cysteine (C271); also called MTSL-tagged SLP65 constructs; source: E. coli BL21(DE3), purified (Ni-NTA, TEV cleavage, size exclusion); not shown: His7, N-terminal, cleaved
[1]
  binding result: binds

B2: SLP65_(40-330) (C271A, S141C), MTSL-tagged (domain or fragment, human, UniProt Q8WV28 40-330, looked up)
chain: KVKAPPSVPRRDYASESPADEEEQWSDDFDSDYENPDEHSDSEMYVMPAEENADDSYEPPPVEQETRPVHPALPFARGEYIDNRSSQRHSPPFSKTLPSKPCWPSEKARLTSTLPALTALQKPQVPPKPKGLLEDEADYVVPVEDNDENYIHPTESSSPPPEKAPMVNRSTKPNSSTPASPPGTASGRNSGAWETKSPPPAAPSPLPRAGKKPTTPLKTTPVASQQNASSVAEEKPIPAERHRGSSHRQEAVQSPVFPPAQKQIHQKPIPLPRFTEGGNPTVDGPLPSFSS
modifications: nitroxide spin label MTSL on the single cysteine (S141C)
notes: SLP65 (BLNK), human, residues 40-330; also called MTSL-tagged SLP65 constructs; source: E. coli BL21(DE3), purified (Ni-NTA, TEV cleavage, size exclusion); not shown: His7, N-terminal, cleaved
[1]
  binding result: binds

B3: SLP65_(40-330) (C271A, S236C), MTSL-tagged (domain or fragment, human, UniProt Q8WV28 40-330, looked up)
chain: KVKAPPSVPRRDYASESPADEEEQWSDDFDSDYENPDEHSDSEMYVMPAEENADDSYEPPPVEQETRPVHPALPFARGEYIDNRSSQRHSPPFSKTLPSKPSWPSEKARLTSTLPALTALQKPQVPPKPKGLLEDEADYVVPVEDNDENYIHPTESSSPPPEKAPMVNRSTKPNSSTPASPPGTASGRNSGAWETKCPPPAAPSPLPRAGKKPTTPLKTTPVASQQNASSVAEEKPIPAERHRGSSHRQEAVQSPVFPPAQKQIHQKPIPLPRFTEGGNPTVDGPLPSFSS
modifications: nitroxide spin label MTSL on the single cysteine (S236C)
notes: as for B2
[1]
  binding result: binds

B4: SLP65_(40-330) (C271A, Q302C), MTSL-tagged (domain or fragment, human, UniProt Q8WV28 40-330, looked up)
chain: KVKAPPSVPRRDYASESPADEEEQWSDDFDSDYENPDEHSDSEMYVMPAEENADDSYEPPPVEQETRPVHPALPFARGEYIDNRSSQRHSPPFSKTLPSKPSWPSEKARLTSTLPALTALQKPQVPPKPKGLLEDEADYVVPVEDNDENYIHPTESSSPPPEKAPMVNRSTKPNSSTPASPPGTASGRNSGAWETKSPPPAAPSPLPRAGKKPTTPLKTTPVASQQNASSVAEEKPIPAERHRGSSHRQEAVQSPVFPPAQKCIHQKPIPLPRFTEGGNPTVDGPLPSFSS
modifications: nitroxide spin label MTSL on the single cysteine (Q302C)
notes: as for B2
[1]
  binding result: binds

B5: SLP65_(1-330) (domain or fragment, human, UniProt Q8WV28 1-330, looked up)
chain: MDKLNKITVPASQKLRQLQKMVHDIKNNEGGIMNKIKKLKVKAPPSVPRRDYASESPADEEEQWSDDFDSDYENPDEHSDSEMYVMPAEENADDSYEPPPVEQETRPVHPALPFARGEYIDNRSSQRHSPPFSKTLPSKPSWPSEKARLTSTLPALTALQKPQVPPKPKGLLEDEADYVVPVEDNDENYIHPTESSSPPPEKAPMVNRSTKPNSSTPASPPGTASGRNSGAWETKSPPPAAPSPLPRAGKKPTTPLKTTPVASQQNASSVCEEKPIPAERHRGSSHRQEAVQSPVFPPAQKQIHQKPIPLPRFTEGGNPTVDGPLPSFSS
modifications: 15N-labeled
notes: SLP65 (BLNK), human, residues 1-330 (without the C-terminal SH2 domain); also called BLNK; Src homology (SH) 2 domain-containing leukocyte protein of 65 kDa; source: E. coli BL21(DE3), purified (Ni-NTA, TEV cleavage, size exclusion); not shown: His7, N-terminal, cleaved
[2]
  binding result: binds
[3]
  binding result: binds
